Test results: patent US20110223155A1
Blank lines part the entries; values can stand above or below the substance they belong to.

Assays:
[1] = target: full-length human Notch3 receptor expressed on cells (human) (UniProt Q9UM47); test: cell-based or functional assay
[2] = target: human Notch1-LD/Fc (LIN/dimerization domain fused to Fc region at the carboxyl terminus) (human) (UniProt P46531); test: ELISA on coated Notch1-LD/Fc
[3] = target: Notch3-LD/Fc fusion protein (Notch3 LIN12/dimerization domain fused to human gamma 1 Fc) (human) (UniProt Q9UM47); test: ELISA on coated Notch3-LD/Fc

Chain of UniProt P46531 (P46531 1440-1735 limits assumed, form in doubt): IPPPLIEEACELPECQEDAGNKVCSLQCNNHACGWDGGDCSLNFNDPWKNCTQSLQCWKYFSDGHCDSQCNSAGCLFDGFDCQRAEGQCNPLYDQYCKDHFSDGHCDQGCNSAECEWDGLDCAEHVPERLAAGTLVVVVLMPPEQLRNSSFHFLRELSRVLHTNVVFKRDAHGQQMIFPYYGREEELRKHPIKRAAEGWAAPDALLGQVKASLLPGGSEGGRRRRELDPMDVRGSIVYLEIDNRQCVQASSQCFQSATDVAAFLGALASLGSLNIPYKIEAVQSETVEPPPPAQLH

- luciferase activity (CBF1-Luc reporter) of NC85 cells cocultured with Jagged2/293F, against coculture with PCDNA 3.1/293T [1]: 2 to 4 fold
Substance: human Jagged2 expressed on 293 cells (Jagged2/293F) (from UniProt Q9Y219 24-1238) (ligand)

- ELISA OD reading (mean) [2]: 0.066 OD 450 nm
- ELISA OD reading (mean) [3]: 0.064 OD 450 nm
Substance: Control IgG1 (irrelevant IgG1 monoclonal antibody)

- luciferase activity (CBF1-Luc reporter) of NC85 cells cocultured with Jagged1/293T, against coculture with PCDNA 3.1/293T [1]: 2 to 4 fold
Substance: human Jagged1 expressed on 293T cells (Jagged1/293T) (from UniProt P78504 34-1218) (ligand)
